# Test results from patent publication US20130058911.
# B1: recombinant putative NAD(P)H nitroreductase (yodC) of Bacillus subtilis with C-terminal 6x His-tag (protein)
# chain: MTNTLDVLKARASVKEYDTNAPISKEELTELLDLATKAPSAWNLQHWHFTVFHSDESKAELLPVAYNQKQIVESSAVVAILGDLKANENGEEVYAELASQGYITDEIKQTLLGQINGAYQSEQFARDSAFLNASLAAMQLMIAAKAKGYDTCAIGGFNKEQFQKQFDISERYVPVMLISIGKAVKPAHQSNRLPLSKVSTWLHHHHHH
# B2: recombinant dihydrolipoyl dehydrogenase (DLD) without His tag (protein)
# chain: MVVGDFPIETDTLVIGAGPGGYVAAIRAAQLGQKVTVVEKATLGGVCLNVGCIPSKALINAGHRYENAKHSDDMGITAENVTVDFTKVQEWKASVVNKLTGGVAGLLKGNKVDVVKGEAYFVDSNSVRVMDENSAQTYTFKNAIIATGSRPIELPNFKYSERVLNSTGALALKEIPKKLVVIGGGYIGTELGTAYANFGTELVILEGGDEILPGFEKQMSSLVTRRLKKKGNVEIHTNAMAKGVEERPDGVTVTFEVKGEEKTVDADYVLITVGRRPNTDELGLEQVGIEMTDRGIVKTDKQCRTNVPNIYAIGDIIEGPPLAHKASYEGKIAAEAIAGEPAEIDYLGIPAVVFSEPELASVGYTEAQAKEEGLDIVAAKFPFAANGRALSLNETDGFMKLITRKEDGLVIGAQIAGASASDMISELSLAIEGGMTAEDIAMTIHAHPTLGEITMEAAEVAIGSPIHIVK
# B3: recombinant dihydrolipoyl dehydrogenase (DLD) with His tag (protein)
# chain: MVVGDFPIETDTLVIGAGPGGYVAAIRAAQLGQKVTVVEKATLGGVCLNVGCIPSKALINAGHRYENAKHSDDMGITAENVTVDFTKVQEWKASVVNKLTGGVAGLLKGNKVDVVKGEAYFVDSNSVRVMDENSAQTYTFKNAIIATGSRPIELPNFKYSERVLNSTGALALKEIPKKLVVIGGGYIGTELGTAYANFGTELVILEGGDEILPGFEKQMSSLVTRRLKKKGNVEIHTNAMAKGVEERPDGVTVTFEVKGEEKTVDADYVLITVGRRPNTDELGLEQVGIEMTDRGIVKTDKQCRTNVPNIYAIGDIIEGPPLAHKASYEGKIAAEAIAGEPAEIDYLGIPAVVFSEPELASVGYTEAQAKEEGLDIVAAKFPFAANGRALSLNETDGFMKLITRKEDGLVIGAQIAGASASDMISELSLAIEGGMTAEDIAMTIHAHPTLGEITMEAAEVAIGSPIHIVKHHHHHH
# B4: recombinant malate dehydrogenase (MDH) of Bacillus subtilis with C-terminal 6x His-tag (protein)
# chain: MGNTRKKVSVIGAGFTGATTAFLIAQKELADVVLVDIPQLENPTKGKALDMLEASPVQGFDAKITGTSNYEDTAGSDIVVITAGIARKPGMSRDDLVSTNEKIMRSVTQEIVKYSPDSIIVVLTNPVDAMTYAVYKESGFPKERVIGQSGVLDTARFRTFVAEELNLSVKDVTGFVLGGHGDDMVPLVRYSYAGGIPLETLIPKERIDAIVERTRKGGGEIVNLLGNGSAYYAPAASLTEMVEAILKDQRRVLPTIAYLEGEYGYEGIYLGVPTIVGGNGLEQIIELELTDYERAQLNKSVESVKNVMKVLSHHHHHH
# Biological target: metmyoglobin
# Sequence (P68082 2-154): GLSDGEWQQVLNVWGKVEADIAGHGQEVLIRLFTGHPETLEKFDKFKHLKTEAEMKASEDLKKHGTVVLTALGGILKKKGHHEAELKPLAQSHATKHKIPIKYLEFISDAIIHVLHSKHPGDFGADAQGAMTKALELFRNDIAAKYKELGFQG
Protein,metmyoglobin reduction activity (change in A406 with NADH),reactivity for myoglobin (relative to DLD)
B1,the activity of yodC was confirmed,"In comparison with DLD, yodC showed about 2.6 times and 22 times higher reactivity for potassium ferricyanide and myoglobin, respectively"
B2,Both of them showed 10 times or more higher metmyoglobin reduction activity than the empty vector,–
B3,Both of them showed 10 times or more higher metmyoglobin reduction activity than the empty vector,–
B4,the activity of MDH was not found,–
